# Measurements taken from patent US20220098305A1 (Hoffmann-La Roche, published 2022).
# Residue numbers refer to the chain shown, from its start.
# T1: human ICOS (human, UniProt Q9Y6W8 21-199)
# T1 construct: The cell that carries it is named under assay; also called huICOS; CD278
# T1 sequence: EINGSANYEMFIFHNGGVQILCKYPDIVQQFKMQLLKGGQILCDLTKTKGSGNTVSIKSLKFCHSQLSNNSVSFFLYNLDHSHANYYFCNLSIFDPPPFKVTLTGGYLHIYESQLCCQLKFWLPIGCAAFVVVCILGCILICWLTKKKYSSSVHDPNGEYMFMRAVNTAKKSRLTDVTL
# B1: Molecule 21, bispecific 2+1 anti-ICOS (1143v1)/anti-FAP (4B9) huIgG1 P329GLALA kih (bispecific antibody)
# heavy 1: QSLEESGGDLVKPGASLTLTCKASGFDFSSAYDMSWVRQAPGKGLEWIGVVYYGDGITYYATWAKGRFTISKTSSTTVPLQMTSLTAADTATYFCARGAFLGSSYYLSLWGQGTLVTVSSASTKGPSVFPLAPSSKSTSGGTAALGCLVKDYFPEPVTVSWNSGALTSGVHTFPAVLQSSGLYSLSSVVTVPSSSLGTQTYICNVNHKPSNTKVDKKVEPKSCDKTHTCPPCPAPEAAGGPSVFLFPPKPKDTLMISRTPEVTCVVVDVSHEDPEVKFNWYVDGVEVHNAKTKPREEQYNSTYRVVSVLTVLHQDWLNGKEYKCKVSNKALGAPIEKTISKAKGQPREPQVCTLPPSRDELTKNQVSLSCAVKGFYPSDIAVEWESNGQPENNYKTTPPVLDSDGSFFLVSKLTVDKSRWQQGNVFSCSVMHEALHNHYTQKSLSLSPGGGGGSGGGGSGGGGSGGGGSEIVLTQSPGTLSLSPGERATLSCRASQSVTSSYLAWYQQKPGQAPRLLINVGSRRATGIPDRFSGSGSGTDFTLTISRLEPEDFAVYYCQQGIMLPPTFGQGTKVEIK
# heavy 2: not shown
# light: AIDMTQTPASVEAAVGGTVTINCQASENIYNWLAWYQQKPGQPPKLLIYDASKLASGVPSRFSASGSGTQFTLTISAVESADAATYYCQQAYTYGNIDNAFGGGTEVVVSRTVAAPSVFIFPPSDEQLKSGTASVVCLLNNFYPREAKVQWKVDNALQSGNSQESVTEQDSKDSTYSLSSTLTLSKADYEKHKVYACEVTHQGLSSPVTKSFNRGEC
# B2: Molecule 44, bispecific 2+1 anti-ICOS (1143)/anti-FAP (4B9) huIgG1 P329GLALA kih (bispecific antibody)
# heavy 1: B1 heavy 1 with V50S
# heavy 2: not shown
# light: B1 light
# B3: Molecule 32 (ICOS 1138) (antibody, human IgG1, kappa, L234A L235A, V domains shown)
# VH: QSLEESGGDLVKPGASLTLTCTASGFDLSSYYYMSWVRQAPGKGLEWIASIYADIYGGTTHYASWAKGRFTISKTSSTTVTLQMTSLTAADTATYFCAREDGSRYGGSGYYNLWGPGTLVTVSS
# VL: ALVMTQTPSSVSAAVGGTVTINCQASQNIYSNLAWYQQKPGQPPKLLIYAASYLTSGVSSRFKGSGAGTQFTLTISGVESADAATYYCQQGHTTDNIDNAFGGGTEVVVKR
# notes: Human IgG format; also called parental antibody of Molecules 33-35
# B4: Molecule 29 (ICOS H1143v2_1) (antibody, human IgG1, kappa, L234A L235A, V domains shown)
# VH: EVQLLESGGGLVQPGGSLRLSCAASGFDFSSAYDMSWVRQAPGKGLEWVSVIYYGDGITYYADSVKGRFTISRDNSKNTLYLQMNSLRAEDTAVYFCARGAFLGSSYYLSLWGQGTLVTVSS
# VL: DIQMTQSPSSLSASVGDRVTITCRASENIYNWLAWYQQKPGKAPKLLIYDASKLASGVPSRFSGSGSGTDFTLTISSLQPEDFATYYCQQAYTYGNIDNAFGGGTKVEIKR
# notes: Human IgG format
# B5: Molecule 31 (ICOS H1143v2_3) (antibody, human IgG1, kappa, L234A L235A, V domains shown)
# VH: EVQLLESGGGLVQPGGSLRLSCAASGFDFSSAYDMSWVRQAPGKGLEWIGVIYYGDGITYYADSVKGRFTISRDNSNTLYLQMNSLRAEDTAVYFCARGAFLGSSYYLSLWGQGTLVTVSS
# VL: B4 VL
# notes: Human IgG format
# B6: Molecule 30 (ICOS H1143v2_2) (antibody, human IgG1, kappa, L234A L235A, V domains shown)
# VH: B4 VH with R73K, D74T, N75S, N78T
# VL: B4 VL
# notes: Human IgG format
# B7: Molecule 33 (ICOS H1138_1) (antibody, human IgG1, kappa, L234A L235A, V domains shown)
# VH: EVQLLESGGGLVQPGGSLRLSCAASGFDLSSYYYMSWVRQAPGKGLEWVSSIYADIYGGTTHYASWAKGRFTISKTSSKTTLYLQMNSLRAEDTAVYFCAREDGSRYGGSGYYNLWGQGTLVTVSS
# VL: DIQMTQSPSSLSASVGDRVTITCRASQNIYSNLAWYQQKPGQPPKLLIYAASYLTSGVPSRFSGSGSGTDFTLTISSLQPEDFATYYCQQGHTTDNIDNAFGGGTKVEIKR
# notes: Human IgG format
# B8: Molecule 35 (ICOS H1138_3) (antibody, human IgG1, kappa, L234A L235A, V domains shown)
# VH: EVQLLESGGGLVQPGGSLRLSCAASGFDLSSYYYMSWVRQAPGKGLEWVSSIYADIYGGTTHYASWAKGRFTISKTSSTTLYLQMNSLRAEDTAVYFCAREDGSRYGGSGYYNLWGQGTLVTVSS
# VL: B7 VL with D1A, Q42K, P59S
# notes: Human IgG format
# B9: Molecule 34 (ICOS H1138_2) (antibody, human IgG1, kappa, L234A L235A, V domains shown)
# VH: B7 VH with K75R, T76D, S77N, T80N
# VL: B7 VL with D1A, Q42K, P59S
# notes: Human IgG format
# B10: Molecule 27 (ICOS H009v1_3) (antibody, human IgG1, kappa, L234A L235A, V domains shown)
# VH: EVQLVESGGGLVQPGRSLRLSCTASGFTFSDYWMNWVRQAPGKGLEWVAQIRNKPYNYETYYAASVKGRFTISRDDSKSIAYLQMNSLKTEDTAVYYCTWPRLRSSDWHFDVWGKGTTVTVSS
# VL: DIQMTQSPSSLSASVGDRVTITCQASQDINKNIAWYQQKPGKAPKLLIWYTSTLQTGVPSRFSGSGSGTDFTFTISSLQPEDIATYYCLQFDNLYTFGQGTKLEIKR
# notes: Human IgG format
# B11: Molecule 28 (ICOS 1143v2) (antibody, human IgG1, kappa, L234A L235A, V domains shown)
# VH: QSLEESGGDLVKPGASLTLTCKASGFDFSSAYDMSWVRQAPGKGLEWIGVIYYGDGITYYATSVKGRFTISKTSSTTVPLQMTSLTAADTATYFCARGAFLGSSYYLSLWGQGTLVTVSS
# VL: AIDMTQTPASVEAAVGGTVTINCQASENIYNWLAWYQQKPGQPPKLLIYDASKLASGVPSRFSASGSGTQFTLTISAVESADAATYYCQQAYTYGNIDNAFGGGTEVVVSR
# notes: Human IgG format; also called parent antibody of Molecules 29-31
# B12: Molecule 1 (JMab136 IgG) (antibody, V domains shown)
# VH: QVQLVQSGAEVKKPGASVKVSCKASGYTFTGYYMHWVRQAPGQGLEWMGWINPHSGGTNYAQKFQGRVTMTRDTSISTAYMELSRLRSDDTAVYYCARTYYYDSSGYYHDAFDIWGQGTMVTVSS
# VL: DIQMTQSPSSVSASVGDRVTITCRASQGISRLLAWYQQKPGKAPKLLIYVASSLQSGVPSRFSGSGSGTDFTLTISSLQPEDFATYYCQQANSFPWTFGQGTKVEIK
# notes: IgG
# Target: T1, human ICOS
# Assay: flow cytometry on SR cells expressing human ICOS, geometric MFI
row,Binder,EC50 (read off the curve) [nM]
1,B1,~0.5
2,B2,~2

# Target: T1, human ICOS
# Assay: cell-based or functional assay
Binder,EC50 of activation of Jurkat-NFAT reporter cell line [nM],"Max (Counts/sec), Jurkat-NFAT reporter cell line [Counts/sec]"
B3,38.7,28500
B4,27.6,63800
B5,23.2,52000
B6,29.4,55300
B7,41.4,41400
B8,99.4,59500
B9,34,38400
B10,~7.99,47400
B11,28,52300

# Target: T1, human ICOS
# Assay: flow cytometry, CHO cells expressing human ICOS
Binder,EC50 [nM],Max (Log10(MFI))
B3,2.12,4.3 Log10(MFI)
B4,5.2,2.38 Log10(MFI)
B5,1.75,4.44 Log10(MFI)
B6,2.25,2.75 Log10(MFI)
B7,7.58,3.89 Log10(MFI)
B8,2.72,4.55 Log10(MFI)
B9,10.2,1.91 Log10(MFI)
B10,2.7,6.85 Log10(MFI)
B11,2.56,4.88 Log10(MFI)

# Target: T1, human ICOS
# Assay: flow cytometry, SR cells
row,Binder,EC50 [nM]
1,B1,0.00057
2,B2,0.00217

# Target: T1, human ICOS
# Assay: flow cytometry, CHO cells expressing human ICOS
# Remark: another data set of the same source
# Experimental: (§1) Briefly, suspension cells were harvested, counted, checked for viability and re-suspended at 1 million cells per ml in FACS buffer (PBS with 0.1% BSA). […] The staining was fixed for 20 min at 4° C. in the dark, using 75 μl of 1% PFA in FACS buffer per well.
# (§2) Fluorescence was analyzed by FACS using a FACS Fortessa (Software FACS Diva). Binding curves and EC50 values were obtained using GraphPadPrism 7.
row,Binder,EC50 [nM]
1,B12,0.0023

# Target: T2, human FAP (human, UniProt Q12884 1-760)
# T2 construct: also called hu FAP
# Assay: flow cytometry, NIH/3T3-huFAP clone 19 cells
row,Binder,EC50 [nM]
1,B1,0.00501
2,B2,0.00434

# Target: T1, human ICOS
# Assay: flow cytometry on CHO cells stably expressing human ICOS, PE-labelled secondary antibody, median fluorescence intensity (MFI)
# Experimental: as §1, §2
row,Binder,EC50 (read off the curve) [nM]
1,B12,~2

# Target: T1, human ICOS
# Assay: flow cytometry on CHO cells expressing human ICOS, PE-labelled secondary antibody; y axis printed LOG10(MFI PE)
row,Binder,EC50 (read off the curve) [nM]
1,B3,~2
2,B7,~8
3,B8,~3
4,B9,~10

# Target: T1, human ICOS
# Assay: as above
# Remark: another data set of the same source
row,Binder,EC50 (read off the curve) [nM]
1,B4,~6
2,B5,~2
3,B6,~2
4,B11,~3
